# Experimental data reported in paper PMC12221286, “Endogenous formation of phosphatidylhomoserine in Escherichia coli through phosphatidylserine synthase” (The Journal of Biological Chemistry, 2025).
# B1: EcPssA (E. coli phosphatidylserine synthase A, PssA) (Escherichia coli K-12) (protein)
# chain: MLSKFKRNKHQQHLAQLPKISQSVDDVDFFYAPADFRETLLEKIASAKQRICIVALYLEQDDGGKGILNALYEAKRQRPELDVRVLVDWHRAQRGRIGAAASNTNADWYCRMAQENPGVDVPVYGVPINTREALGVLHFKGFIIDDSVLYSGASLNDVYLHQHDKYRYDRYHLIRNRKMSDIMFEWVTQNIMNGRGVNRLDDVNRPKSPEIKNDIRLFRQELRDAAYHFQGDADNDQLSVTPLVGLGKSSLLNKTIFHLMPCAEQKLTICTPYFNLPAILVRNIIQLLREGKKVEIIVGDKTANDFYIPEDEPFKIIGALPYLYEINLRRFLSRLQYYVNTDQLVVRLWKDDDNTYHLKGMWVDDKWMLITGNNLNPRAWRLDLENAILIHDPQLELAPQREKELELIREHTTIVKHYRDLQSIADYPVKVRKLIRRLRRIRIDRLISRIL
# notes: purified EcPssA in Tris/NaCl/glycerol/octyl glucoside
# Substrate: N[C@@H](CCO)C(=O)O
# Test: purified protein
# Format: biochemical, Escherichia coli
# Conditions: 0.3 mM 18:1/18:1 CDP-DAG, 10 mM MgCl2, 0.1 M KCl, 2.4 mM Triton X-100, pH 7.5, 25 °C, apparent constants
protein,measurement,value
B1,Km,4.6 ± 0.02 mM
same,kcat,2.86 ± 0.04 s⁻¹
